Measurements taken from US11535824B2, “Nuclear transfer” (Sung Kwang Medical Foundation, priority 2015, dated 2022).

Experiments:
cancer models = settings: variety of in vitro and in vivo cancer models; cited from earlier work
[1] = test system: primary human fibroblasts; settings: without MYC or KLF4; cited from earlier work
H4R3 = settings: cited from earlier work
SCNT-generated embryos = settings: cited from earlier work
[2] = test system: mouse embryos obtained from SCNT; assay: CPP-CARM1 protein treatment of 8-cell SCNT embryos; development to blastocyst; type: cell-based; settings: for % of developed to BLs: calculated from 2 cell cleavaged embryos
Protocol: The above preliminary results were extended in further studies utilizing protein treatment. SCNT oocytes were cultured with protein of CARM1 on third day after formation of fertilized embryo to investigate the influence on the development rate into blastocyst. Specifically, mouse embryos obtained from SCNT were cultured to 8-cell stage in embryo culture medium (potassium simplex-optimized medium, KSOM; Millipore, Danvers, Mass.) containing 10% SPS (Sage, Trumbull, Conn.). And then, 8-cell embryos were cultured at 37° C. and 5% CO2 for 48 h in embryo culture medium with 2 μg/ml CPP-CARM1 recombinant protein or DsRed protein (control—non-functional protein) under mineral oil (Sage). Embryonic development was monitored for a further 2 days. CARM1 or DsRed cDNA was inserted into a pET vector to construct an expression plasmid for CARM1 conjugated to 7× arginine (a cell-penetrating peptide (CPP) domain) and a 6×His-tag. The CPP-CARM1 protein expression vector was transformed into BL21 (DE3) pLysS-competent cells (Stratagene Inc., La Jolla, Calif.). Transformed cells were cultured and induced by 1 mM isopropyl-1-thio-β-D-galactopyranoside (IPTG) for 8 h at 20° C. to produce the CPP-CARM1 or DsRed proteins.

adult stem cells = settings: cited from earlier work

Molecule: CC(C)N(C[C@H]1O[C@@H](n2cnc3c(N)ncnc32)[C@H](O)[C@@H]1O)[C@H]1C[C@@H](CCc2nc3cc(C(C)(C)C)ccc3[nH]2)C1 [EPZ5676]
- anticancer chemotherapeutic activity (cancer models): exhibit anticancer chemotherapeutic activity

Molecule: Cc1cc(C)c(CNC(=O)c2cc(-c3ccc(CN4CCOCC4)cc3)cc3c2cnn3C2CCCC2)c(=O)[nH]1 [EPZ005687]
- anticancer chemotherapeutic activity (cancer models): exhibit anticancer chemotherapeutic activity

Molecule: CC[C@H](C)n1cc(C)c2c(C(=O)NCc3c(C)cc(C)[nH]c3=O)cc(-c3ccc(N4CCNCC4)nc3)cc21 [GSK126]
- anticancer chemotherapeutic activity (cancer models): exhibit anticancer chemotherapeutic activity

Molecule: CCCC(CCC)C(=O)O [Valproic acid]
- reprogramming with two factors, OCT4 and SOX2 [1]: enables the reprogramming

Molecule: Nc1ccc(S(=O)(=O)c2ccc(NCN3C(=O)NC(=O)C(=O)C3=O)cc2)cc1 [allantodapsone]
- methylation at H4R3 (H4R3): hypomethylation

Molecule: CC(/C=C/C(=O)NO)=C\[C@@H](C)C(=O)c1ccc(N(C)C)cc1 [trichostatin A]
- chromosome decondensation and nuclear volume (SCNT-generated embryos; SCNT-generated embryos): increase
- cloning efficiency (SCNT-generated embryos; additive in nuclear transfer): improve cloning efficiency

B1: coactivator-associated arginine methyltransferase 1 (protein, UniProt Q86X55 2-608, looked up)
Histone-arginine …: AAAAAAVGPGAGGAGSAVPGGAGPCATVSVFPGARLLTIGDANGEIQRHAEQQALRLEVRAGPDSAGIALYSHEDVCVFKCSVSRETECSRVGKQSFIITLGCNSVLIQFATPNDFCSFYNILKTCRGHTLERSVFSERTEESSAVQYFQFYGYLSQQQNMMQDYVRTGTYQRAILQNHTDFKDKIVLDVGCGSGILSFFAAQAGARKIYAVEASTMAQHAEVLVKSNNLTDRIVVIPGKVEEVSLPEQVDIIISEPMGYMLFNERMLESYLHAKKYLKPSGNMFPTIGDVHLAPFTDEQLYMEQFTKANFWYQPSFHGVDLSALRGAAVDEYFRQPVVDTFDIRILMAKSVKYTVNFLEAKEGDLHRIEIPFKFHMLHSGLVHGLAFWFDVAFIGSIMTVWLSTAPTEPLTHWYQVRCLFQSPLFAKAGDTLSGTCLLIANKRQSYDISIVAQVDQTGSKSSNLLDLKNPFFRYTGTTPSPPPGSHYTSPSENMWNTGSTYNLSSGMAVAGMPTAYDLSSVIASGSSVGHNNLIPLANTGIVNHTHSRMGSIMSTGIVQGSSGAQGSGGGSTSAHYAVNSQFTMGGPAISMASPMSIPTNTMHYGS
notes: member of the protein arginine methyltransferase (PRMT) family
- No. of developed to BLs ([2]; Total of three experiments): 26
- % of developed to BLs ([2]; Total of three experiments): (38.2) %
- % of developed to BLs ([2]; experiment 1): (46.2) %
- No. of developed to BLs ([2]; experiment 1, treatment D 3, cumulus donor cell, KSOM): 12
- % of developed to BLs ([2]; experiment 2): (40) %
- No. of developed to BLs ([2]; experiment 2, treatment D 3, cumulus donor cell, KSOM): 10
- % of developed to BLs ([2]; experiment 3): (23.5) %
- No. of developed to BLs ([2]; experiment 3, treatment D 3, cumulus donor cell, KSOM): 4
- expression of Oct-4, Sox-2 and nanog (adult stem cells): upregulated
